{"source": "patent US20260167699A1", "about": "(Chugai, published 2026)", "binders": {"B1": {"name": "GpH7-A5/GpH7-B3 variant L328_06M/GpL16-k0 (antibody, human IgG1, kappa)", "heavy 1": "not shown", "heavy 2": "not shown", "light": "DIVMTQSPLSLPVTPGEPASISCQASESLVHSNRNTYLHWYLQKPGQSPQLLIYKVSNRFSGVPDRFSGSGSGTDFTLKISRVEAEDVGVYYCSQNTHVPPTFGQGTKVEIERTVAAPSVFIFPPSDEQLKSGTASVVCLLNNFYPREAKVQWKVDNALQSGNSQESVTEQDSKDSTYSLSSTLTLSKADYEKHKVYACEVTHQGLSSPVTKSFNRGEC", "notes": "He Ab: heterodimerized IgG1, one H chain mutated"}, "B2": {"name": "GpH7-A5/GpH7-B3 variant L328_07I/GpL16-k0 (antibody, human IgG1, kappa)", "heavy 1": "not shown", "heavy 2": "not shown", "light": "B1 light", "notes": "as for B1"}, "B3": {"name": "GpH7-A5/GpH7-B3 variant L328_13S/GpL16-k0 (antibody, human IgG1, kappa)", "heavy 1": "not shown", "heavy 2": "not shown", "light": "B1 light", "notes": "as for B1"}, "B4": {"name": "GpH7-A5/GpH7-B3 variant L328_14T/GpL16-k0 (antibody, human IgG1, kappa)", "heavy 1": "not shown", "heavy 2": "not shown", "light": "B1 light", "notes": "as for B1"}, "B5": {"name": "GpH7-A5/GpH7-B3 variant L328_15Y/GpL16-k0 (antibody, human IgG1, kappa)", "heavy 1": "not shown", "heavy 2": "not shown", "light": "B1 light", "notes": "as for B1"}, "B6": {"name": "GpH7-A5/GpH7-B3 variant L328_16H/GpL16-k0 (antibody, human IgG1, kappa)", "heavy 1": "not shown", "heavy 2": "not shown", "light": "B1 light", "notes": "as for B1"}, "B7": {"name": "GpH7-A5/GpH7-B3 variant L328_18N/GpL16-k0 (antibody, human IgG1, kappa)", "heavy 1": "not shown", "heavy 2": "not shown", "light": "B1 light", "notes": "as for B1"}, "B8": {"name": "GpH7-A5/GpH7-B3 variant L328_19Q/GpL16-k0 (antibody, human IgG1, kappa)", "heavy 1": "not shown", "heavy 2": "not shown", "light": "B1 light", "notes": "as for B1"}, "B9": {"name": "GpH7-A5/GpH7-B3 variant N325_09D/GpL16-k0 (antibody, human IgG1, kappa)", "heavy 1": "not shown", "heavy 2": "not shown", "light": "B1 light", "notes": "as for B1"}, "B10": {"name": "GpH7-A5/GpH7-B3 variant N325_13S/GpL16-k0 (antibody, human IgG1, kappa)", "heavy 1": "not shown", "heavy 2": "not shown", "light": "B1 light", "notes": "as for B1"}, "B11": {"name": "GpH7-A5/GpH7-B3 variant P329_09D/GpL16-k0 (antibody, human IgG1, kappa)", "heavy 1": "not shown", "heavy 2": "not shown", "light": "B1 light", "notes": "as for B1"}, "B12": {"name": "GpH7-A5/GpH7-B3 variant P329_10E/GpL16-k0 (antibody, human IgG1, kappa)", "heavy 1": "not shown", "heavy 2": "not shown", "light": "B1 light", "notes": "as for B1"}, "B13": {"name": "GpH7-A5/GpH7-B3 variant Q295_01G/GpL16-k0 (antibody, human IgG1, kappa)", "heavy 1": "not shown", "heavy 2": "not shown", "light": "B1 light", "notes": "as for B1"}, "B14": {"name": "GpH7-A5/GpH7-B3 variant S298_01G/GpL16-k0 (antibody, human IgG1, kappa)", "heavy 1": "not shown", "heavy 2": "not shown", "light": "B1 light", "notes": "as for B1"}, "B15": {"name": "GpH7-A5/GpH7-B3 variant S298_02A/GpL16-k0 (antibody, human IgG1, kappa)", "heavy 1": "not shown", "heavy 2": "not shown", "light": "B1 light", "notes": "as for B1"}, "B16": {"name": "GpH7-A5/GpH7-B3 variant S298_03V/GpL16-k0 (antibody, human IgG1, kappa)", "heavy 1": "not shown", "heavy 2": "not shown", "light": "B1 light", "notes": "as for B1"}, "B17": {"name": "GpH7-A5/GpH7-B3 variant S298_04F/GpL16-k0 (antibody, human IgG1, kappa)", "heavy 1": "not shown", "heavy 2": "not shown", "light": "B1 light", "notes": "as for B1"}}, "note": "Substitutions are numbered along the chain they refer to.", "data": [{"target": "T1, FcγRIIa(R) (human, UniProt P12318 34-217)", "T1 construct": "extracellular domain; also called 2aR", "T1 sequence": "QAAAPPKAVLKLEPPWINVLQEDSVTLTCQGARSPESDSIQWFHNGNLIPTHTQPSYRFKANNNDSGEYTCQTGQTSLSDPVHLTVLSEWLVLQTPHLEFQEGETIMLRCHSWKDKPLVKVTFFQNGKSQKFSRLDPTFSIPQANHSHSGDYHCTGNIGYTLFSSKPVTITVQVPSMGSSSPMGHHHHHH", "experiment": "SPR, relative to GpH7-A5/GpH7-B3/GpL16-k0 =100", "units": {"He/Con 2aR": "%"}, "values": [{"binder": "B1", "He/Con 2aR": 148}, {"binder": "B2", "He/Con 2aR": 160}, {"binder": "B3", "He/Con 2aR": 150}, {"binder": "B4", "He/Con 2aR": 153}, {"binder": "B5", "He/Con 2aR": 174}, {"binder": "B6", "He/Con 2aR": 106}, {"binder": "B7", "He/Con 2aR": 76.4}, {"binder": "B8", "He/Con 2aR": 115}, {"binder": "B9", "He/Con 2aR": 111}, {"binder": "B10", "He/Con 2aR": 137}, {"binder": "B11", "He/Con 2aR": 76}, {"binder": "B12", "He/Con 2aR": 72.7}, {"binder": "B13", "He/Con 2aR": 60.3}, {"binder": "B14", "He/Con 2aR": 94.5}, {"binder": "B15", "He/Con 2aR": 87.2}, {"binder": "B16", "He/Con 2aR": 82.5}, {"binder": "B17", "He/Con 2aR": 80.4}]}, {"target": "T2, FcγRIIb (human, UniProt P31994 43-217)", "T2 construct": "extracellular domain; also called 2b", "T2 sequence": "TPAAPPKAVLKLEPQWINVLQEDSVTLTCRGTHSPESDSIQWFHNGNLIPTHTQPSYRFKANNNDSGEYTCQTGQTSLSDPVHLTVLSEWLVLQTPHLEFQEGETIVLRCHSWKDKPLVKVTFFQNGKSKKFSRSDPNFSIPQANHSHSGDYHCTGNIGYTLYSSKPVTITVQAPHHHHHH", "experiment": "SPR, relative to GpH7-A5/GpH7-B3/GpL16-k0 =100", "units": {"He/Con 2b": "%"}, "values": [{"binder": "B1", "He/Con 2b": 176}, {"binder": "B2", "He/Con 2b": 200}, {"binder": "B3", "He/Con 2b": 186}, {"binder": "B4", "He/Con 2b": 176}, {"binder": "B5", "He/Con 2b": 240}, {"binder": "B6", "He/Con 2b": 100}, {"binder": "B7", "He/Con 2b": 101}, {"binder": "B8", "He/Con 2b": 131}, {"binder": "B9", "He/Con 2b": 139}, {"binder": "B10", "He/Con 2b": 198}, {"binder": "B11", "He/Con 2b": 60.4}, {"binder": "B12", "He/Con 2b": 59.5}, {"binder": "B13", "He/Con 2b": 51.6}, {"binder": "B14", "He/Con 2b": 81.2}, {"binder": "B15", "He/Con 2b": 74.4}, {"binder": "B16", "He/Con 2b": 65.4}, {"binder": "B17", "He/Con 2b": 66.3}]}, {"target": "T3, FcγRIa (human, UniProt P12314 16-292)", "T3 construct": "extracellular domain; also called 1a", "T3 sequence (P12314 other isoform, or with tags, fused parts or gaps)": "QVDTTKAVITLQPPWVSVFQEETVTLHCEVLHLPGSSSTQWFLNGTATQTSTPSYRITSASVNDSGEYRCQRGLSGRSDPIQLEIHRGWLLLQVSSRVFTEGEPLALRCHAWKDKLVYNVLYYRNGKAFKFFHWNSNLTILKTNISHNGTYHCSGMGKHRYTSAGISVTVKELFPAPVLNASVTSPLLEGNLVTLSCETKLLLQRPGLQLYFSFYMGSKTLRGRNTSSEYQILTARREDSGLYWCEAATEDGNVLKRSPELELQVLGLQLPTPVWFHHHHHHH", "experiment": "SPR, relative to GpH7-A5/GpH7-B3/GpL16-k0 =100", "units": {"He/Con 1a": "%"}, "values": [{"binder": "B1", "He/Con 1a": 101}, {"binder": "B2", "He/Con 1a": 102}, {"binder": "B3", "He/Con 1a": 101}, {"binder": "B4", "He/Con 1a": 103}, {"binder": "B5", "He/Con 1a": 104}, {"binder": "B6", "He/Con 1a": 98.5}, {"binder": "B7", "He/Con 1a": 101}, {"binder": "B8", "He/Con 1a": 104}, {"binder": "B9", "He/Con 1a": 105}, {"binder": "B10", "He/Con 1a": 102}, {"binder": "B11", "He/Con 1a": 80.1}, {"binder": "B12", "He/Con 1a": 81.4}, {"binder": "B13", "He/Con 1a": 96.1}, {"binder": "B14", "He/Con 1a": 100}, {"binder": "B15", "He/Con 1a": 103}, {"binder": "B16", "He/Con 1a": 106}, {"binder": "B17", "He/Con 1a": 106}]}, {"target": "T4, FcγRIIa(H) (human, UniProt P12318 34-217)", "T4 construct": "extracellular domain; also called 2aH", "T4 sequence": "T1 sequence with R134H", "experiment": "SPR, relative to GpH7-A5/GpH7-B3/GpL16-k0 =100", "units": {"He/Con 2aH": "%"}, "values": [{"binder": "B1", "He/Con 2aH": 122}, {"binder": "B2", "He/Con 2aH": 111}, {"binder": "B3", "He/Con 2aH": 146}, {"binder": "B4", "He/Con 2aH": 138}, {"binder": "B5", "He/Con 2aH": 106}, {"binder": "B6", "He/Con 2aH": 84.5}, {"binder": "B7", "He/Con 2aH": 80.6}, {"binder": "B8", "He/Con 2aH": 103}, {"binder": "B9", "He/Con 2aH": 55.3}, {"binder": "B10", "He/Con 2aH": 83}, {"binder": "B11", "He/Con 2aH": 57.1}, {"binder": "B12", "He/Con 2aH": 57.6}, {"binder": "B13", "He/Con 2aH": 62.5}, {"binder": "B14", "He/Con 2aH": 71.4}, {"binder": "B15", "He/Con 2aH": 74.3}, {"binder": "B16", "He/Con 2aH": 83.2}, {"binder": "B17", "He/Con 2aH": 75.5}]}]}
